From patent US20170312350A1

B1: TCR R10P1A7 (TCR, V domains shown)
V domain 1: GEDVEQSLFLSVREGDSSVINCTYTDSSSTYLYWYKQEPGAGLQLLTYIFSNMDMKQDQRLTVLLNKKDKHLSLRIADTQTGDSAIYFCAESKETRLMFGDGTQLVVKP
V domain 2: GAVVSQHPSWVICKSGTSVKIECRSLDFQATTMFWYRQFPKQSLMLMATSNEGSKATYEQGVEKDKFLINHASLTLSTLTVTSAHPEDSSFYICSARAGGHEQFFGPGTRLTVLE
B2: TCR R10P1A7 expressed from lentiviral construct 1863R (MSCV-R10P1A7A-2A-R10P1A7B-WPRE) (TCR, V domains shown)
V domain 1: B1 V domain 1
V domain 2: B1 V domain 2
B3: TCR R10P1A7 expressed from lentiviral construct 1864R (MSCV-R10P1A7B-2A-R10P1A7A-WPRE) (TCR, V domains shown)
V domain 1: B1 V domain 1
V domain 2: B1 V domain 2

Tests used:
[1] = molecular target: MHC/IGF2BP3-001 tetramer (human); assay: tetramer staining, flow cytometry of RNA-electroporated CD8+ T-cells
MHC/NYESO1-001 tetramer = assay: tetramer staining, flow cytometry of RNA-electroporated CD8+ T-cells (unrelated-peptide tetramer)
[2] = molecular target: MHC/IGF2BP3-001 tetramer (human); assay: tetramer binding by flow cytometry, lentivirally transduced primary T-cells, donor 1
[3] = molecular target: MHC/IGF2BP3-001 tetramer (human); assay: tetramer binding by flow cytometry, lentivirally transduced primary T-cells, donor 2

Binder | % IGF2BP3-001 TET-positive primary CD8+ T-cells [1] | % NYESO1-001 TET-positive primary CD8+ T-cells (MHC/NYESO1-001 tetramer) | % of CD3+ Tet+ [2] | % of CD8+ Tet+ [2] | % of CD3+ Tet+ [3] | % of CD8+ Tet+ [3]
B1 | 6.78% | 1.53% | – | – | – | –
B2 | – | – | 2.3% | 3.93% | 0.99% | 1.79%
B3 | – | – | 15.2% | 22% | 8.12% | 11.7%
